The target in this test is ELAVL4 1-117 with the canonical isoAsp-prone sites N7, N15 and D36 mutated (human).

For “recombinant rat repair enzyme protein-L-isoaspartate O-methyltransferase (PIMT) (from UniProt P22062)”, the on-blot PIMT-catalyzed methylation with 3H-S-adenosyl methionine amounted to 25%.

The values are drawn from US20190290758A1.
